B1: 75110_04F22A (antibody, V domains shown)
VH: EVQLVESGGGLVQPGGSLRLSCAASGFTFSSYDIHWVRQATGKGLEWVSTIGTAGDTYYPGSVKGRFTISRENAKNSLYLQMNSLRAGDTAVYYCARGGYYYYGMDVWGQGTTVTVSS
VL: EIVLTQSPGTLSLSPGERATLSCRASQSVYSSYLAWYQQKPGQAPRLLIYGASSRATGIPDRFSGSGSGTDFTLTISRLEPEDFAVYYCQQFGTSPFTFGPGTKVDIK
notes: Tested as antibody purified from AlivaMab Mouse hybridoma supernatant (captured by anti-mouse IgG Fc)
B2: 75110_01G11A (antibody, V domains shown)
VH: EVQLVESGGGLVQPGGSLRLSCAASGFTFSSYDMHWVRQATGKGLEWVSTIGTAGDTYYPGSVKGRFTISRENARNSLFLQMNSLRAGDTAVYYCARGGDYYYGMDVWGQGTTVTVSS
VL: EIVLTQSPGTLSLFPGERATLSCRASQNTYSSYLAWYQQKPGQAPRLLIYGASNRATGIPDRFSGSGSGTDFTLTISRLEPEDFAVYYCQQHGTSPFTFGPGTKVDIK
notes: as for B1
B3: 75110_01E08A (antibody, V domains shown)
VH: EVQLVESGGGLVQPGGSLRLSCAASGFTFNNYDMHWVRQATGKGLEWVSTIGTAGDTYYPASVKGRFTIYRENAKNSLYLQMNSLRAGDTAVYYCARGGDYYYGMDVWGQGTTVTVSS
VL: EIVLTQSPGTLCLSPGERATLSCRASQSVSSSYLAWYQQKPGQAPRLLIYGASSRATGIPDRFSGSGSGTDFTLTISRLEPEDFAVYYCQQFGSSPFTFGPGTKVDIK
notes: as for B1
B4: 75110_01N04A (antibody, V domains shown)
VH: EVQLVESGGGLVQPGGSLRLSCAASGFTFSNYDMHWVRQATGKGLEWVSTIGTAGDTYYPGSVKGRFTISRENAKNSLYLQMNSLRAGDTAVYYCARGGDFYYGLDVWGQGTTVTVSS
VL: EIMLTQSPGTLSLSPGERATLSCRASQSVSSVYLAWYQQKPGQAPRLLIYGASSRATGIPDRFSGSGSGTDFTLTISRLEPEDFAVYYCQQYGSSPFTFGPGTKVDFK
notes: as for B1
B5: 75110_01J17A (antibody, V domains shown)
VH: EVQLVESGGGLVQPGGSLRLSCAASGFTFSSYDMHWVRQGTGKGLEWVSTIGTADDTYYPGSVKGRFTISRENAENSLYLQMNSLRAGDTAVYYCARGGDYYYGMDVWGQGTTVTVSS
VL: EIVLAQSPGTLSLSPGERATLSCRASQSVYISYLAWYQQKPGQAPRLLIYGASSRATGIPDRFSGSGSGTDFTLTITRLEPEDFAVYYCQQFGSSPFTFGPGTKVDFK
notes: as for B1
B6: 75110_03L12A (antibody, V domains shown)
VH: QVQLQQWGAGLLKPSETLSLTCAVYGGSFSGYYWSWIRQPPGKGLEWIGEINHSGSTNYNPSLKSRVTISVDTSENQFSLTLISVTAADTAVYYCVRLINWFDPWGQGTLVTVSS
VL: DIQMTQSPSSVSASVGDRVTITCRASQDISNWLAWYQQKPGKAPKLLIFAASSLQSGVPSRFSGSGSGTDFTLTISSLQPDDFATYYCQQANSFPYTFGQGTNLGIK
notes: as for B1
B7: 75110_01H18A (antibody, V domains shown)
VH: QVQLQQWGAGLLKPSETLSLTCAVYGGSFSGYYWSWIRQSPGKGLEWIGEINQSGSTNYNPSLKSRVTISVDTSKNQFSLKLSSVTAADTAVYYCARVINWFDSWGQGTLVTVSS
VL: DIQMTQSPSSVSASVGDRVTITCRASQGISSWLAWYQQKPGKAPKLLIYAASSFQSGVPSRFSGSGSGTDFTLTISSLQTEDFATYYCQQANSFPYTFGQGTRLEIK
notes: as for B1

The target of the test is T1, Rhesus macaque CD4-HIS (Acro Biosystems, Cat. CD4-C52H7) (rhesus macaque, UniProt P16003 26-390).
T1 construct: Bought reagent; also called Rhesus CD4; rhesus CD4-HIS; not shown: His tag
T1 sequence (P16003 26-390 limits assumed): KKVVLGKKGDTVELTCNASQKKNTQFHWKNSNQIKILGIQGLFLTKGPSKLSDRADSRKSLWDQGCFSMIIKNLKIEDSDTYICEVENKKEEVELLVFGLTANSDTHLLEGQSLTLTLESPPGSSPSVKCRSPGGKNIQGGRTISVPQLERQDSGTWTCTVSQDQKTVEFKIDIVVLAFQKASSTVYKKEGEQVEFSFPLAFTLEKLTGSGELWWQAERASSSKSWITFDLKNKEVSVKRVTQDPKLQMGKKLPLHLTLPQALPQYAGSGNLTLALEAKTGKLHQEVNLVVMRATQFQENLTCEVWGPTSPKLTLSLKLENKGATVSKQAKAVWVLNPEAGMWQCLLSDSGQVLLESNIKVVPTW
Briefly: BLI Octet, mAb on anti-mouse Fc sensor, rhesus CD4-HIS 25-100 nM, 1:1 global fit.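 Note: purified antibodies captured at 10 µg/mL, rhesus CD4 analyte run as a three-concentration serial dilution, irrelevant antibody as reference control, one kinetic constant set per antibody from global fitting.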
Regarding B1, the Kd was 7.2 nM, the Response was determined as 0.04, the koff is 0.0011 s⁻¹ and the kon was 150000 M⁻¹ s⁻¹.
Regarding B2, the Kd is 64 nM, the Response stood at 0.03, the koff was determined as 0.0018 s⁻¹ and the association rate constant (kon) came out at 28000 M⁻¹ s⁻¹.
For B3 the same measures were 0.98 nM, 0.1, 0.00014 s⁻¹ and 140000 M⁻¹ s⁻¹.
With B4, the affinity, expressed as Kd, was 0.035 nM; the Response was determined as 0.02; the koff was 0.0061 s⁻¹; the kon is 1.7e+08 M⁻¹ s⁻¹.
B5 returned a Kd of 22 nM, a Response of 0.05, a koff of 0.0017 s⁻¹ and a kon of 79000 M⁻¹ s⁻¹.
Taken in the same sequence, the figures for B6 were 72 nM, 0.08, 0.016 s⁻¹ and 220000 M⁻¹ s⁻¹.
Take B7: the Kd came to 130 nM, the Response amounted to 0.11, the koff was 0.017 s⁻¹ and the kon came out at 130000 M⁻¹ s⁻¹.

The record behind these values is patent US20220112288A1 (published 2022).
